Experimental data: patent US20220041650A1

Legend:
[1] = biological target: CH505TF4.1 SOSIP Trimer (HV1301189, CH505TF.6R.SOSIP.664.v4.1) (HIV-1); experiment: SPR antibody binding; drug substance of the 50 L scale run
[2] = biological target: CH505TF4.1 SOSIP Trimer (HV1301189, CH505TF.6R.SOSIP.664.v4.1) (HIV-1); experiment: SPR antibody binding; drug substance of the 200 L scale run 1
[3] = biological target: CH505TF4.1 SOSIP Trimer (HV1301189, CH505TF.6R.SOSIP.664.v4.1) (HIV-1); experiment: SPR antibody binding; drug substance of the 200 L scale run 2

Substance	Kd [1]	Kd [2]	Kd [3]
PGT151 (antibody)	17.5 nM	16 nM	13.1 nM
PGT145 (antibody)	11 nM	11.3 nM	11.7 nM
